Reference: paper PMC9334217

Experiments:
[1] = test system: CCn1c(=NN=c2sc3cc(S(=O)(=O)O)ccc3n2CC)sc2cc(S(=O)(=O)O)ccc21; experiment: purified protein; settings: 1.5 mM H2O2, 100 mM sodium acetate, pH 4.3, 25 °C, variant 29E4
[2] = target: PpDyP variant 6E10 (E188K/A142V/H125Y) (Pseudomonas putida MET94); experiment: crystal structure

| Substance | Km [1] | stoichiometry N [2] |
| --- | --- | --- |
| PpDyP (Pseudomonas putida KT2440; E188K/H125Y) | 810 ± 190 µM | – |
| PpDyP variant 6E10 (E188K/A142V/H125Y) (enzyme) | – | 4 |
